Experimental data published in article PMC6667744 (Pharmacology Research & Perspectives, 2019).

Biological target: Nanoluc‐RXFP2 (UniProt Q8WXD0 1-754)
Test: FRET or BRET

Chain of Nanoluc‐RXFP2 (Q8WXD0 whole entry): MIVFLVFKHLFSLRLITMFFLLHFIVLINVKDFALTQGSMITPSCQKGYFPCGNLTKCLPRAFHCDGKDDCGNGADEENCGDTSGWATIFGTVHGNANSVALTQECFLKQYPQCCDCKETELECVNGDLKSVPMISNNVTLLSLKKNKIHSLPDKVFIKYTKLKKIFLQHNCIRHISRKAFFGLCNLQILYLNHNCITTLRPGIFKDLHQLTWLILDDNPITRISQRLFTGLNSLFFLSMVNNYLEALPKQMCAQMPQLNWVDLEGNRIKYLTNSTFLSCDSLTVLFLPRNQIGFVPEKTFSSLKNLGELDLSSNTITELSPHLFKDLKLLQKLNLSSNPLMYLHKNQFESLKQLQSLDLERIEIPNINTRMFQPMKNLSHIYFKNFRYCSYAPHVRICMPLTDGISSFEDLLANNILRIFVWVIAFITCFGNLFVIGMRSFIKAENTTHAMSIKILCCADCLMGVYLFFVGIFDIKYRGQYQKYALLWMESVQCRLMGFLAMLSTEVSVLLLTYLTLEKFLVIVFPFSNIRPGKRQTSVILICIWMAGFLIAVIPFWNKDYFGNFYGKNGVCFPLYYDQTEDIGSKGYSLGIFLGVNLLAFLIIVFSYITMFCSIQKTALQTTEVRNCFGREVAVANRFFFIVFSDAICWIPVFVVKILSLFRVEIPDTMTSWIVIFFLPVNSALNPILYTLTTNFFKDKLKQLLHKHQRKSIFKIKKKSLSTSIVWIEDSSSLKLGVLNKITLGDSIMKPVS

B1: mCitrine‐RXFP1 (receptor)
chain: QDVKCSLGYFPCGNITKCLPQLLHCNGVDDCGNQADEDNCGDNNGWSLQFDKYFASYYKMTSQYPFEAETPECLVGSVPVQCLCQGLELDCDETNLRAVPSVSSNVTAMSLQWNLIRKLPPDCFKNYHDLQKLYLQNNKITSISIYAFRGLNSLTKLYLSHNRITFLKPGVFEDLHRLEWLIIEDNHLSRISPPTFYGLNSLILLVLMNNVLTRLPDKPLCQHMPRLHWLDLEGNHIHNLRNLTFISCSNLTVLVMRKNKINHLNENTFAPLQKLDELDLGSNKIENLPPLIFKDLKELSQLNLSYNPIQKIQANQFDYLVKLKSLSLEGIEISNIQQRMFRPLMNLSHIYFKKFQYCGYAPHVRSCKPNTDGISSLENLLASIIQRVFVWVVSAVTCFGNIFVICMRPYIRSENKLYAMSIISLCCADCLMGIYLFVIGGFDLKFRGEYNKHAQLWMESTHCQLVGSLAILSTEVSVLLLTFLTLEKYICIVYPFRCVRPGKCRTITVLILIWITGFIVAFIPLSNKEFFKNYYGTNGVCFPLHSEDTESIGAQIYSVAIFLGINLAAFIIIVFSYGSMFYSVHQSAITATEIRNQVKKEMILAKRFFFIVFTDALCWIPIFVVKFLSLLQVEIPGTITSWVVIFILPINSALNPILYTLTTRPFKEMIHRFWYNYRQRKSMDSKGQKTYAPSFIWVEMWPLQEMPPELMKPDLFTYPCEMSLISQSTRLNSYS
Q: Which “BRET signal relative to that of Nanoluc-RXFP1 with mCitrine-RXFP1” value does the source give for B1 here?
A: ~75%
